B1: ASCL2 (protein, UniProt Q99929 1-193, looked up)
Achaete-scute homolog 2: MDGGTLPRSAPPAPPVPVGCAARRRPASPELLRCSRRRRPATAETGGGAAAVARRNERERNRVKLVNLGFQALRQHVPHGGASKKLSKVETLRSAVEYIRALQRLLAEHDAVRNALAGGLRPQAVRPSAPRGPPGTTPVAASPSRASSSPGRGGSSEPGSPRSAYSSDDSGCEGALSPAERELLDFSSWLGGY
B2: MDFI (protein, UniProt Q99750 1-246, looked up)
MyoD family inhibitor: MYQVSGQRPSGCDAPYGAPSAAPGPAQTLSLLPGLEVVTGSTHPAEAAPEEGSLEEAATPMPQGNGPGIPQGLDSTDLDVPTEAVTCQPQGNPLGCTPLLPNDSGHPSELGGTRRAGNGALGGPKAHRKLQTHPSLASQGSKKSKSSSKSTTSQIPLQAQEDCCVHCILSCLFCEFLTLCNIVLDCATCGSCSSEDSCLCCCCCGSGECADCDLPCDLDCGILDACCESADCLEICMECCGLCFSS
B3: MBLR (protein, UniProt Q9BYE7 1-350, looked up)
Polycomb group RING finger …: MEGVAVVTAGSVGAAKTEGAAALPPPPPVSPPALTPAPAAGEEGPAPLSETGAPGCSGSRPPELEPERSLGRFRGRFEDEDEELEEEEELEEEEEEEEEDMSHFSLRLEGGRQDSEDEEERLINLSELTPYILCSICKGYLIDATTITECLHTFCKSCIVRHFYYSNRCPKCNIVVHQTQPLYNIRLDRQLQDIVYKLVINLEEREKKQMHDFYKERGLEVPKPAVPQPVPSSKGRSKKVLESVFRIPPELDMSLLLEFIGANEGTGHFKPLEKKFVRVSGEATIGHVEKFLRRKMGLDPACQVDIICGDHLLEQYQTLREIRRAIGDAAMQDGLLVLHYGLVVSPLKIT
B4: MADH1 (protein, UniProt Q15797 1-465, looked up)
Mothers against …: MNVTSLFSFTSPAVKRLLGWKQGDEEEKWAEKAVDALVKKLKKKKGAMEELEKALSCPGQPSNCVTIPRSLDGRLQVSHRKGLPHVIYCRVWRWPDLQSHHELKPLECCEFPFGSKQKEVCINPYHYKRVESPVLPPVLVPRHSEYNPQHSLLAQFRNLGQNEPHMPLNATFPDSFQQPNSHPFPHSPNSSYPNSPGSSSSTYPHSPTSSDPGSPFQMPADTPPPAYLPPEDPMTQDGSQPMDTNMMAPPLPSEINRGDVQAVAYEEPKHWCSIVYYELNNRVGEAFHASSTSVLVDGFTDPSNNKNRFCLGLLSNVNRNSTIENTRRHIGKGVHLYYVGGEVYAECLSDSSIFVQSRNCNYHHGFHPTTVCKIPSGCSLKIFNNQEFAQLLAQSVNHGFETVYELTKMCTIRMSFVKGWGAEYHRQDVTSTPCWIEIHLHGPLQWLDKVLTQMGSPHNPISSVS
B5: MAGED1 (protein, UniProt Q9Y5V3 1-778, looked up)
Melanoma-associated antigen D1: MAQKMDCGAGLLGFQAEASVEDSALLMQTLMEAIQISEAPPTNQATAAASPQSSQPPTANEMADIQVSAAAARPKSAFKVQNATTKGPNGVYDFSQAHNAKDVPNTQPKAAFKSQNATPKGPNAAYDFSQAATTGELAANKSEMAFKAQNATTKVGPNATYNFSQSLNANDLANSRPKTPFKAWNDTTKAPTADTQTQNVNQAKMATSQADIETDPGISEPDGATAQTSADGSQAQNLESRTIIRGKRTRKINNLNVEENSSGDQRRAPLAAGTWRSAPVPVTTQNPPGAPPNVLWQTPLAWQNPSGWQNQTARQTPPARQSPPARQTPPAWQNPVAWQNPVIWPNPVIWQNPVIWPNPIVWPGPVVWPNPLAWQNPPGWQTPPGWQTPPGWQGPPDWQGPPDWPLPPDWPLPPDWPLPTDWPLPPDWIPADWPIPPDWQNLRPSPNLRPSPNSRASQNPGAAQPRDVALLQERANKLVKYLMLKDYTKVPIKRSEMLRDIIREYTDVYPEIIERACFVLEKKFGIQLKEIDKEEHLYILISTPESLAGILGTTKDTPKLGLLLVILGVIFMNGNRASEAVLWEALRKMGLRPGVRHPLLGDLRKLLTYEFVKQKYLDYRRVPNSNPPEYEFLWGLRSYHETSKMKVLRFIAEVQKRDPRDWTAQFMEAADEALDALDAAAAEAEARAEARTRMGIGDEAVSGPWSWDDIEFELLTWDEEGDFGDPWSRIPFTFWARYHQNARSRFPQTFAGPIIGPGGTASANFAANFGAIGFFWVE
B6: MAD3 (protein, UniProt Q9BW11 1-206, looked up)
Max dimerization protein 3: MEPLASNIQVLLQAAEFLERREREAEHGYASLCPHRSPGPIHRRKKRPPQAPGAQDSGRSVHNELEKRRRAQLKRCLERLKQQMPLGADCARYTTLSLLRRARMHIQKLEDQEQRARQLKERLRSKQQSLQRQLEQLRGLAGAAERERLRADSLDSSGLSSERSDSDQEELEVDVESLVFGGEAELLRGFVAGQEHSYSHGGGAWL
B7: MAD (protein, UniProt Q05195 1-221, looked up)
Max dimerization protein 1: MAAAVRMNIQMLLEAADYLERREREAEHGYASMLPYNNKDRDALKRRNKSKKNNSSSRSTHNEMEKNRRAHLRLCLEKLKGLVPLGPESSRHTTLSLLTKAKLHIKKLEDCDRKAVHQIDQLQREQRHLKRQLEKLGIERIRMDSIGSTVSSERSDSDREEIDVDVESTDYLTGDLDWSSSSVSDSDERGSMQSLGSDEGYSSTSIKRIKLQDSHKACLGL
B8: MADH4 (protein, UniProt Q13485 1-552, looked up)
Mothers against …: MDNMSITNTPTSNDACLSIVHSLMCHRQGGESETFAKRAIESLVKKLKEKKDELDSLITAITTNGAHPSKCVTIQRTLDGRLQVAGRKGFPHVIYARLWRWPDLHKNELKHVKYCQYAFDLKCDSVCVNPYHYERVVSPGIDLSGLTLQSNAPSSMMVKDEYVHDFEGQPSLSTEGHSIQTIQHPPSNRASTETYSTPALLAPSESNATSTANFPNIPVASTSQPASILGGSHSEGLLQIASGPQPGQQQNGFTGQPATYHHNSTTTWTGSRTAPYTPNLPHHQNGHLQHHPPMPPHPGHYWPVHNELAFQPPISNHPAPEYWCSIAYFEMDVQVGETFKVPSSCPIVTVDGYVDPSGGDRFCLGQLSNVHRTEAIERARLHIGKGVQLECKGEGDVWVRCLSDHAVFVQSYYLDREAGRAPGDAVHKIYPSAYIKVFDLRQCHRQMQQQAATAQAAAAAQAAAVAGNIPGPGSVGGIAPAISLSAAAGIGVDDLRRLCILRMSFVKGWGPDYPRQSIKETPCWIEIHLHRALQLLDEVLHTMPIADPQPLD
B9: ASCL3 (protein, UniProt Q9NQ33 1-181, looked up)
Achaete-scute homolog 3: MMDNRGNSSLPDKLPIFPDSARLPLTRSFYLEPMVTFHVHPEAPVSSPYSEELPRLPFPSDSLILGNYSEPCPFSFPMPYPNYRGCEYSYGPAFTRKRNERERQRVKCVNEGYAQLRHHLPEEYLEKRLSKVETLRAAIKYINYLQSLLYPDKAETKNNPGKVSSMIATTSHHADPMFRIV
B10: MAEL (protein, UniProt Q96JY0 1-434, looked up)
Protein maelstrom homolog: MPNRKASRNAYYFFVQEKIPELRRRGLPVARVADAIPYCSSDWALLREEEKEKYAEMAREWRAAQGKDPGPSEKQKPVFTPLRRPGMLVPKQNVSPPDMSALSLKGDQALLGGIFYFLNIFSHGELPPHCEQRFLPCEIGCVKYSLQEGIMADFHSFINPGEIPRGFRFHCQAASDSSHKIPISNFERGHNQATVLQNLYRFIHPNPGNWPPIYCKSDDRTRVNWCLKHMAKASEIRQDLQLLTVEDLVVGIYQQKFLKEPSKTWIRSLLDVAMWDYSSNTRCKWHEENDILFCALAVCKKIAYCISNSLATLFGIQLTEAHVPLQDYEASNSVTPKMVVLDAGRYQKLRVGSSGFSHFNSSNEEQRSNTPIGDYPSRAKISGQNSSVRGRGITRLLESISNSSSNIHKFSNCDTSLSPYMSQKDGYKSFSSLS

Tested on: HEK293FT cells transfected with TF library
Test: Screening of TF condensates based on fluorescent puncta
Type: cell-based
Details: Figure 1B numerical data; TF library screen, one value per transcriptional factor
In short: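 Puncta scoring used automated confocal imaging of fifty random fields per well, after anti-Flag or anti-GAL4 immunofluorescence (Alexa 488) in PFA-fixed cells. HEK293FT cells carried TF library plasmids delivered with PEI (1.6 μg/ml DNA). At 60 h they were switched for 12 h to glucose-containing or glucose-free medium.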

Molecule	Z score of condensed fraction
B1	0.864
B2	0.558
B3	0.4702
B4	-0.2284
B5	-0.7984
B6	-1.116
B7	0.4682
B8	-0.6861
B9	0.02457
B10	-0.816

From article PMC11574045, “A cofactor-induced repressive type of transcription factor condensation can be induced by synthetic peptides to suppress tumorigenesis” (The EMBO Journal, 2024)
